# Test results from publication PMC8448823, “Structural basis of RNA polymerase inhibition by viral and host factors” (Nature Communications, 2021).
# B1: Sso TFS4 (natural protein)
# chain: MRFCPKCGSFLKVKGNKMVCSKCGYSDHDVEKVILKENVAHENDKTIIADGETIEGRVAISLCPRCGSVRAILLNKKKRLYRCMTCNFVYNI
# notes: TFS4, paralogue of the transcript cleavage factor TFS; two zinc-ribbon domains ZR^N and ZR^C joined by a linker; expressed without tag; source: E. coli BL21 pLysS, purified (heat step 65 °C, HiTrap Q, Superose 12)
# B2: ATV RIP (RNAP Inhibitory Protein, ORF145) of Acidianus two-tailed virus (natural protein, Acidianus two-tailed virus (ATV))
# chain: MKNMLHPQKYETHVLDDLMEFYEGVIGYPEIDLRLAGEEAWLKGVNPELAEAVKKIIKTIRRYLEGSPYDGSEKPIPRYIIAEIFSQIAPEVQLLVNALDTEGKYGFLKHIKKLNLNSLAMLSKNYNENDKLWKELENEGYVYLE
# notes: RIP (ORF145) of Acidianus two-tailed virus (ATV); 145 aa printed; residues 10–127 resolved in the RNAP–RIP structure; source: E. coli BL21 pLyS, purified (heat step 60 °C, Ni-column, TEV cleavage, second Ni-column); not shown: 6×His, N-terminal, cleaved
# B3: Rpo8 subunit of Sulfolobus acidocaldarius RNA polymerase (natural protein)
# chain: MMQGTCKISSIEKGALKNLYVVKMDCDNDLKIEFDITKELSIFSKDEEVTFIISREKPEYSEKDFCAHGYLFLERQQEDGSFIDEISLYGLIVKILSKNGLINSKLFKMMDHVYYCVKKKA
# notes: Rpo8, subunit of the Sulfolobus acidocaldarius RNA polymerase; holds the conserved GGLLM motif; Stood within the whole 13-subunit RNAP; source: part of the RNAP purified from Saci strain MW001
# Key:
# Conditions in all cases: both partners purified
# [1] = target: T1, Rpo2 subunit of Sulfolobus acidocaldarius RNA polymerase (Sulfolobus acidocaldarius, UniProt P11513 1-1126); experiment: cryo-EM structure; RNAP incubated and cross-linked (BS3, 65 °C) in presence of a 20 molar fold excess of TFS4; map at 2.61 Å
# T1 construct: Rpo2, subunit of the Sulfolobus acidocaldarius RNA polymerase (protrusion and lobe); Stood within the whole 13-subunit RNAP; source: part of the RNAP purified from Saci strain MW001
# T1 sequence (P11513 whole entry): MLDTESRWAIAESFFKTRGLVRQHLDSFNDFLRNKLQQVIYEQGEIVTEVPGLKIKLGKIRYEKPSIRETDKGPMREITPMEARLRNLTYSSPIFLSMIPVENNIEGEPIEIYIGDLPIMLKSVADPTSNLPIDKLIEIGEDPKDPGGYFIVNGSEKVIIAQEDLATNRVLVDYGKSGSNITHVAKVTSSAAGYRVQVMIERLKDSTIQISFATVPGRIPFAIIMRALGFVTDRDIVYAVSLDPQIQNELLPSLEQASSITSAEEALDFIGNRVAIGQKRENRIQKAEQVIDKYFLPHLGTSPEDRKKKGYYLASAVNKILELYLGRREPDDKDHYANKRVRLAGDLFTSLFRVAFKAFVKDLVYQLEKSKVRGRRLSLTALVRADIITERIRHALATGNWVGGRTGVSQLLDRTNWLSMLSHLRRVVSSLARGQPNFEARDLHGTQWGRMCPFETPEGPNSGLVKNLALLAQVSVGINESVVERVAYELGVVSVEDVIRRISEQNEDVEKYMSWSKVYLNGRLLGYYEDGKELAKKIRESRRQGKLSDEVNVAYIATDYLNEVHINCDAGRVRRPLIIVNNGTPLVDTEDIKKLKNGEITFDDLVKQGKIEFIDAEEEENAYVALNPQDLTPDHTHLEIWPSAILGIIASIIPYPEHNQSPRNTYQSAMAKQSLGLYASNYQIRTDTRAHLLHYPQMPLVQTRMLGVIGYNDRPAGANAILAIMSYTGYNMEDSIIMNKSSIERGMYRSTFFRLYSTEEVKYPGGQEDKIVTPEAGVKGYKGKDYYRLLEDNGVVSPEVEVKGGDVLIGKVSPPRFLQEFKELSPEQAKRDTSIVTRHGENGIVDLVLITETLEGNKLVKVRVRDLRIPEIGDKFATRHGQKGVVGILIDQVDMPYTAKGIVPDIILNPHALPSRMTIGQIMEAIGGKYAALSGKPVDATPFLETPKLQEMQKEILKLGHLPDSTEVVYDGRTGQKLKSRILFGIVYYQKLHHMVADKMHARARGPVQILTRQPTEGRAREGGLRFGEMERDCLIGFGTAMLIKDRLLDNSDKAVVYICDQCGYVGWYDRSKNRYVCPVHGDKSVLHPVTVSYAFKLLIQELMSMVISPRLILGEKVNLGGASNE
# [2] = target: T2, Rpo1″ subunit of Sulfolobus acidocaldarius RNA polymerase (Sulfolobus acidocaldarius, UniProt P11514 1-393); experiment: as above
# T2 construct: Rpo1″, subunit of the Sulfolobus acidocaldarius RNA polymerase (upper jaw, trigger loop); Stood within the whole 13-subunit RNAP; source: part of the RNAP purified from Saci strain MW001
# T2 sequence (P11514 whole entry): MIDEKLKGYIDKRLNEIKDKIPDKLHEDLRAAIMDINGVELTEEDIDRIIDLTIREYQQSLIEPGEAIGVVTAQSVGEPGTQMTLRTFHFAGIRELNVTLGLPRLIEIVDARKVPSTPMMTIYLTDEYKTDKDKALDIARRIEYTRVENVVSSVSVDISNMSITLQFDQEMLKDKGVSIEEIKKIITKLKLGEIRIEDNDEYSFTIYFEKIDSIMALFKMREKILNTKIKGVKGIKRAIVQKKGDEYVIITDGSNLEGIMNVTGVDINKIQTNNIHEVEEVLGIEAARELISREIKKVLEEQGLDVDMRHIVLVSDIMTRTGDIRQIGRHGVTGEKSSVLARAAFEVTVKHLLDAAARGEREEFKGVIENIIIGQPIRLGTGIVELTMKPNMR
# [3] = target: T3, Rpo1′ subunit of Sulfolobus acidocaldarius RNA polymerase (Sulfolobus acidocaldarius, UniProt P11512 1-880); experiment: as above
# T3 construct: Rpo1′, subunit of the Sulfolobus acidocaldarius RNA polymerase (clamp, rim helices, bridge helix); Stood within the whole 13-subunit RNAP; source: part of the RNAP purified from Saci strain MW001
# T3 sequence (P11512 whole entry): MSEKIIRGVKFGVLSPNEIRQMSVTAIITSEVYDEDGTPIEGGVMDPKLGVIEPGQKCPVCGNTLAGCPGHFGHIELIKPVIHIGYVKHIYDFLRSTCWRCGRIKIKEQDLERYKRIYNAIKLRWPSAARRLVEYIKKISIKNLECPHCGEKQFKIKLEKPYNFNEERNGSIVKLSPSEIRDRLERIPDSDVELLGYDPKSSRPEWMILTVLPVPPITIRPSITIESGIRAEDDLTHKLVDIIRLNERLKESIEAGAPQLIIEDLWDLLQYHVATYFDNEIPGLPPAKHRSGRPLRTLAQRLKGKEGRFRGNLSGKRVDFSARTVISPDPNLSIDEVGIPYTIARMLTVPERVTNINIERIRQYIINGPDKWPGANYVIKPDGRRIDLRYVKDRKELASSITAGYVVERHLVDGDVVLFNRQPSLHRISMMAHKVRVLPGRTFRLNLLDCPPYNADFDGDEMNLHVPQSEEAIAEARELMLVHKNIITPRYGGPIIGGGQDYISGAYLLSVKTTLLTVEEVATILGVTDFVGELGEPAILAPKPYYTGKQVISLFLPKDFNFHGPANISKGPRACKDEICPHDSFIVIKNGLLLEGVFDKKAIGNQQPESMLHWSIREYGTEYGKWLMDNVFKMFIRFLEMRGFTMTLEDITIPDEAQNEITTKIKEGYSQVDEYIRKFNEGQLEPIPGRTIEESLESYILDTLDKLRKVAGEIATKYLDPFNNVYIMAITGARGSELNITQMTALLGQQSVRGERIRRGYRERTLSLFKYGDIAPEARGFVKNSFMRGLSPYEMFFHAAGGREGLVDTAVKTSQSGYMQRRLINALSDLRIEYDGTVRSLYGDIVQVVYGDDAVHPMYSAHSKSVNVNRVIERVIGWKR
# [4] = target: T1, Rpo2 subunit of Sulfolobus …; experiment: cryo-EM structure; RNAP incubated with a 10-fold excess of RIP for 5 min at 65 °C, then cross-linked with 2 mM BS3; 20 mM Hepes pH 7.0, 200 mM NaCl, 5 mM MgCl2; map at 3.27 Å
# [5] = target: T3, Rpo1′ subunit of Sulfolobus …; experiment: as above
# [6] = target: T3, Rpo1′ subunit of Sulfolobus …; experiment: cryo-EM structure; apo-RNAP cross-linked with 2 mM BS3 for 5 min at 65 °C; 20 mM Hepes pH 7.0, 200 mM NaCl, 5 mM MgCl2; map at 2.88 Å
binder,measurement,setting,value
B1,binding result,[1],binds
same,binding result,[2],binds
same,binding result,[3],binds
B2,binding result,[4],binds
same,binding result,[5],binds
B3,binding result,[6],binds
